According to the supplement of paper PMC9170038:

System: MS2 coat protein
Test: apparent KD of MS2 coat protein; designed switch direction (-1 OFF switch, 1 ON switch): -1; higher = weaker reporter binding
How it was run: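 Each step of the titration lasted 0.8–1.5 h at the lowest concentration and 10–20 min at the highest. The protein, SNAP-549-labelled MS2 coat protein, went from 0.7 or 1.5 nM doubling to 3 µM over RNA switches transcribed on Illumina chips by stalled E. coli RNA polymerase. Normalised cluster fluorescence was curve-fitted, and the per-design median over clusters is given as apparent KD.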

[1] = Eterna round: R95, input ligand: FMN 200 uM
[2] = Eterna round: R95, input ligand: microRNA oligo, concentration not stated
[3] = Eterna round: R95, input ligand: none
[4] = input ligand: microRNA oligo, concentration not stated

Row | Sequence | apparent KD of MS2 coat protein [1] | apparent KD of MS2 coat protein [2] | apparent KD of MS2 coat protein [3] | apparent KD of MS2 coat protein (input ligand: FMN 200 uM) | apparent KD of MS2 coat protein [4] | apparent KD of MS2 coat protein (input ligand: none)
1 | CAUGGGUGUGAGCCGCAUUACAUGAGGAUCACCCAUGUCAACAAGCUUUUUGCUUGUCUUACGCGGCGGCACCAAAA [Bimaus] (puzzle: Sensor v3, turn-off variant 1) | 17.4 nM | 9.65 nM | 14.9 nM |  |  | 
2 | CAUGUCCAACGAGGAUAUGGGACAGGAAGUGUACCAGAAGGCGUACGGACAUGAGGAUCACCCAUGUCGCGCGGUGCGAUGUGG [MOD Nando EXNG 1.1] (Eterna round: R96, puzzle: Exclusion NG 1) |  |  |  | 47 nM | 23.8 nM | 91.7 nM
3 | CAUGUGUAAGGAUAUGACAAUGGUAUCGAAAGAUACCAUUGUCAGAAGGUACAUGAGGAUCACCCAUGUAGAUC [Ex4-3: 19] (puzzle: Exclusion 4) | 342 nM | 60.8 nM | 86.3 nM |  |  | 
4 | CAUUAAACGGAGGAUAUCCUAUAUAUAAUAAUAGGAGAAGGUCGUACAUGAGGAUCACCCAUGUGUGGACAUGG [something] (puzzle: Exclusion 6) | 107 nM | 206 nM | 249 nM |  |  | 
5 | CAUUAUGUUGAGGAUAUGCGCCGGAAAACUGACGCAGAAGGCGACACAUGAGGAUCACCCAUGUCAGUUUUCGA [salish99_ex6_r004_426] (Eterna round: R97, puzzle: Exclusion 6) |  |  |  | 136 nM |  | 273 nM
6 | CAUUAUUAUCGAGGAUAUCCUAUUGAAAUUCUGGGAGAAGGCGGACUCAACAUGAGGAUCACCCAUGUGGGACGGAUGCUAGGC [salish99_exng1_r04_601] (Eterna round: R96, puzzle: Exclusion NG 1) |  |  |  | 14.2 nM | 15.6 nM | 19.3 nM
7 | CAUUGUUAUCGAGGAUAUCCUAUUGAGAUUCUAGGAGAAGGCGGACUAAACAUGAGGAUCACCCAUGUGGGACGGAUGCUAGGG [Ex NG1 #30] (Eterna round: R96, puzzle: Exclusion NG 1) |  |  |  | 31.4 nM | 19.8 nM | 25.2 nM
8 | CCAAACAGAGGAUAUGCGAAUAAAUAAAACUUUUUUUUUUAACAUGAGGAUCACCCAUGUAGAAGGCUGCAACC [Ex2 #40] (Eterna round: R97, puzzle: Exclusion 2) |  |  |  | 24.4 nM |  | 19.5 nM
9 | CCAAAGUCAGGAUAUACAUGAGGAUCACCCAUGUAAAAUUUUAAUUUAAUUUGAAGGUGUAGAAGGGACAAACC [Ex3 #32] (Eterna round: R97, puzzle: Exclusion 3) |  |  |  | 30.5 nM |  | 30.3 nM
10 | CCAAGAAUAGGAUAUACACCAUGUCAGCUUCUAUACAUCGCACAUGAGGAUCACCCAUGUAGAAGGGUUCUCUC [Exclusion-2-#4] (Eterna round: R97, puzzle: Exclusion 2) |  |  |  | 369 nM |  | 282 nM
11 | CCAAGCAAAAUCAUUAACAACAUGAGGAUCACCCAUGUGUAAGCAAUUAUGUUUGGGCUCUUUAGAGCUCGUCUUAU [JR_STOV1_Sub044] (Eterna round: R97, puzzle: Sensor, turn-off variant 1) |  |  |  | 13.5 nM |  | 14.2 nM
12 | CCAAGCUGUGUGAGGAUAUGCUGAACCUUGGUUCAGCAGAAGGCACAUGAGGAUCACCCAUGUGAAGAGCUUGG [Mat - Exclusion 4 - JL Mod - D96] (puzzle: Brourd's mod of Exclusion 4) |  | 16.6 nM |  |  |  | 
13 | CCAAGCUUAUUCAUUAACAACAUGAGGAUCACCCAUGUGUAAGCAAUUAUGUUUGGGCUCUUUAGUGCUCGUCUUAU [Sensor-V1 #21] (Eterna round: R97, puzzle: Sensor, turn-off variant 1) |  |  |  | 13.7 nM |  | 13.9 nM
14 | CCAAGCUUAUUCAUUAACAACAUGAGGAUCACCCAUGUGUAGGCAAUUAUGUUUGGGCUCUUUAGUGCUCGUCUUAU [Sensor-V1 #22] (Eterna round: R97, puzzle: Sensor, turn-off variant 1) |  |  |  | 14.7 nM |  | 14.7 nM
15 | CCAAGCUUAUUCAUUAACCACAUGAGGAUCACCCAUGUAUAGGCAAUUAUGACUGGGCUCUUUGGUGCUCGUCUUAU [Sensor-V1 #26] (Eterna round: R97, puzzle: Sensor, turn-off variant 1) |  |  |  | 11.5 nM |  | 11.7 nM
16 | CCAAGCUUAUUCAUUAACCACAUGAGGAUCACCCAUGUCUAGGCAAUUAUGACUGGCCCAUCUGGUGCUCGUCUUAU [Sensor-V1 #31] (Eterna round: R97, puzzle: Sensor, turn-off variant 1) |  |  |  | 20.9 nM |  | 20.8 nM
17 | CCAAUGUAAGGAUAUGACAAUGGUAUCUUCGGAUACCAUUGUCAGAAGGUACAUGAGGAUCACCCAUGUACAAA [Ex4-3: 9] (puzzle: Exclusion 4) |  | 13.4 nM |  |  |  | 
18 | CCACGACAUGAGGAUCACCCAUGUGAGGAUAUGACCUGAAAAGCGUGAGCAGUUUGUAUCAGAAGGCGCGUGGG [salish99_ex1_r4_066] (Eterna round: R97, puzzle: Exclusion 1) |  |  |  | 54.4 nM |  | 67.4 nM
